Measured values as given in patent US20230002460A1 (YUHAN, published 2023).
Positions count from the first letter of the chain named. Numbers in names are those of the source. Like-named read-outs stand apart in the source and are kept apart here. Each block holds one binder with its values, some of them ahead of it.

Columns and labels:
[1] = biological target: T1, GDF15 receptors GFRAL and RET, overexpressed together on HEK293 cells (UniProt Q6UXV0 19-394; P07949 29-1114, limits assumed); experiment: cell-based or functional assay
[2] = biological target: T1, GDF15 receptors GFRAL and RET, …; experiment: cell-based or functional assay; remark: listed apart in the source

T1 sequence (Q6UXV0 19-394 limits assumed, chain 1 of 2): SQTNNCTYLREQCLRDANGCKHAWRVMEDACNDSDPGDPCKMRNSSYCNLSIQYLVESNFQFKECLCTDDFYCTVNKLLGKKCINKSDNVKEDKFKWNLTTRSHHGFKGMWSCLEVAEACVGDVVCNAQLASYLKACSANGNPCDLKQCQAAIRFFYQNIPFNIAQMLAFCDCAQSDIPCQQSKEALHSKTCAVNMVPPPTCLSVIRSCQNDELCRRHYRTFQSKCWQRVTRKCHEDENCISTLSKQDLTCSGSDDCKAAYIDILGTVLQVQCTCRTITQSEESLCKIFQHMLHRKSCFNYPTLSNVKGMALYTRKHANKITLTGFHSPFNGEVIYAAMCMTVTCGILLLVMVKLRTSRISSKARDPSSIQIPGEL
T1 sequence (P07949 29-1114 limits assumed, chain 2 of 2): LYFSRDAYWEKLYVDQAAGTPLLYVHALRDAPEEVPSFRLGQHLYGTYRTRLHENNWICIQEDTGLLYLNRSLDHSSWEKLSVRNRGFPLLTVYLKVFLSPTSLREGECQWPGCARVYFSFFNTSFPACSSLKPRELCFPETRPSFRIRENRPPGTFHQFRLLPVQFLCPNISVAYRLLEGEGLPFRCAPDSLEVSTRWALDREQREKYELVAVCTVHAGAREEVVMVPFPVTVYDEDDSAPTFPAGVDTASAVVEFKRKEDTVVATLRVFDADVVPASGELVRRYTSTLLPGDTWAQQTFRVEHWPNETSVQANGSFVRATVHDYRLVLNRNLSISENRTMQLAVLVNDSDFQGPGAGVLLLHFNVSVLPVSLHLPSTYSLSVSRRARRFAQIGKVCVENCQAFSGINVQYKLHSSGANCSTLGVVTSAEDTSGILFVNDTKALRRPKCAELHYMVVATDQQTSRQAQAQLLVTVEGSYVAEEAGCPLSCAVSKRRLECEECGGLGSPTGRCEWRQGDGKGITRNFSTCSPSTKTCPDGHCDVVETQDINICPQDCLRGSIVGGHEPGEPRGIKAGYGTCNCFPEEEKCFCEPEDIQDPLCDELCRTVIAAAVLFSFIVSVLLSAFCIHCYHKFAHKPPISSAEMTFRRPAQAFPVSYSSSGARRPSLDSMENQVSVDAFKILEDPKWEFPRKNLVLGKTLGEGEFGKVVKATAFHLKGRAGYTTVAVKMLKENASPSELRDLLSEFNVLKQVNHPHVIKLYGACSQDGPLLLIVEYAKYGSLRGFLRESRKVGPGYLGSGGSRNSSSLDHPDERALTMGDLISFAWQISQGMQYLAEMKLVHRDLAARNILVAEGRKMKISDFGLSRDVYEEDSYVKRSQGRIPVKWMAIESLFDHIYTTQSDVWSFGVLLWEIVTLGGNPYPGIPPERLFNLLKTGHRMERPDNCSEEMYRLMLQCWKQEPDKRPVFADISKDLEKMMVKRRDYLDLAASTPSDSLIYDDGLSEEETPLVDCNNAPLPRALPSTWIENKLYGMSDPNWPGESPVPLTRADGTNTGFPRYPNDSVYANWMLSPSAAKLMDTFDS

EC50 [1]: 24.1 nM
Emax (%) [relative to FWT 100%] [1]: 90.8%
B1: long-acting GDF15 fusion protein ΔN2, Q51H (Fc fusion)
chain 1: APALAGGPSVFLFPPKPKDTLMISRTPEVTCVVVDVSHEDPEVKFNWYVDGVEVHNAKTKPREEQYNSTYRVVSVLTVLHQDWLNGKEYKCKVSNKALPAPIEKTISKAKGQPREPQVYTLPPSREEMTKNQVSLWCLVKGFYPSDIAVEWESNGQPENNYKTTPPVLDSDGSFFLYSKLTVDKSRWQQGNVFSCSVMHEALHNHYTQKSLSLSPGKGGGGSGGGGSGGGGSGGGGSGGGGSNGDHCPLGPGRCCRLHTVRASLEDLGWADWVLSPREVQVTMCIGACPSHFRAANMHAQIKTSLHRLKPDTVPAPCCVPASYNPMVLIQKTDTGVSLQTYDDLLAKDCHCI
chain 2: not shown

EC50 [1]: 9.3 nM
Emax (%) [relative to FWT 100%] [1]: 10.5%
B2: long-acting GDF15 fusion protein ΔN2, Q90E (Fc fusion)
chain 1: B1 chain 1 with H291Q, Q330E
chain 2: not shown

EC50 [1]: 15.2 nM
Emax (%) [relative to FWT 100%] [1]: 88.6%
B3: long-acting GDF15 fusion protein ΔN2, Q51L (Fc fusion)
chain 1: B1 chain 1 with H291L
chain 2: not shown

EC50 [1]: 11.9 nM
Emax (%) [relative to FWT 100%] [1]: 96.3%
B4: long-acting GDF15 fusion protein ΔN2, Q60L (Fc fusion)
chain 1: B1 chain 1 with H291Q, Q300L
chain 2: not shown

EC50 [1]: 5.6 nM
Emax (%) [relative to FWT 100%] [1]: 100%
B5: long-acting GDF15 fusion protein ΔN2, S97N (Fc fusion)
chain 1: B1 chain 1 with H291Q, S337N
chain 2: not shown

EC50 [1]: 7 nM
Emax (%) [relative to FWT 100%] [1]: 43.5%
B6: long-acting GDF15 fusion protein ΔN2, Q60N (Fc fusion)
chain 1: B1 chain 1 with H291Q, Q300N
chain 2: not shown

EC50 [1]: 9.2 nM
Emax (%) [relative to FWT 100%] [1]: 118%
B7: long-acting GDF15 fusion protein ΔN2, S97Q (Fc fusion)
chain 1: B1 chain 1 with H291Q, S337Q
chain 2: not shown

EC50 [1]: 12.9 nM
Emax (%) [relative to FWT 100%] [1]: 16.3%
B8: long-acting GDF15 fusion protein ΔN2, Y101Q (Fc fusion)
chain 1: B1 chain 1 with H291Q, Y341Q
chain 2: not shown

EC50 [1]: 1.1 nM
Emax (%) [relative to FWT 100%] [1]: 12.3%
B9: long-acting GDF15 fusion protein ΔN2, T92E (Fc fusion)
chain 1: B1 chain 1 with H291Q, T332E
chain 2: not shown

EC50 [1]: 14.2 nM
Emax (%) [relative to FWT 100%] [1]: 87.8%
B10: long-acting GDF15 fusion protein ΔN2, Q51N (Fc fusion)
chain 1: B1 chain 1 with H291N
chain 2: not shown

EC50 [1]: 14.9 nM
Emax (%) [relative to FWT 100%] [1]: 112%
B11: long-acting GDF15 fusion protein ΔN2, T92S (Fc fusion)
chain 1: B1 chain 1 with H291Q, T332S
chain 2: not shown

EC50 [1]: 9 nM
Emax (%) [relative to FWT 100%] [1]: 59.1%
B12: long-acting GDF15 fusion protein ΔN2, D93L (Fc fusion)
chain 1: B1 chain 1 with H291Q, D333L
chain 2: not shown

EC50 [1]: 43.4 nM
Emax (%) [relative to FWT 100%] [1]: 73.2%
B13: long-acting GDF15 fusion protein ΔN2, Q90H (Fc fusion)
chain 1: B1 chain 1 with H291Q, Q330H
chain 2: not shown

EC50 [1]: 6.5 nM
Emax (%) [relative to FWT 100%] [1]: 87.6%
B14: long-acting GDF15 fusion protein ΔN2, D93E (Fc fusion)
chain 1: B1 chain 1 with H291Q, D333E
chain 2: not shown

EC50 [1]: 7.9 nM
Emax (%) [relative to FWT 100%] [1]: 100%
B15: long-acting GDF15 fusion protein ΔN2, S64Q (Fc fusion)
chain 1: B1 chain 1 with H291Q, S304Q
chain 2: not shown

EC50 [1]: 19.4 nM
Emax (%) [relative to FWT 100%] [1]: 51.3%
B16: long-acting GDF15 fusion protein ΔN2, W32F (Fc fusion)
chain 1: B1 chain 1 with W272F, H291Q
chain 2: not shown

EC50 [1]: 31.8 nM
Emax (%) [relative to FWT 100%] [1]: 37.5%
B17: long-acting GDF15 fusion protein ΔN2, Y101F (Fc fusion)
chain 1: B1 chain 1 with H291Q, Y341F
chain 2: not shown

EC50 [1]: 44.2 nM
Emax (%) [relative to FWT 100%] [1]: 41.9%
B18: long-acting GDF15 fusion protein ΔN2, Q51E (Fc fusion)
chain 1: B1 chain 1 with H291E
chain 2: not shown

EC50 [1]: 22.6 nM
Emax (%) [relative to FWT 100%] [1]: 99.6%
B19: long-acting GDF15 fusion protein ΔN2, D93N (Fc fusion)
chain 1: B1 chain 1 with H291Q, D333N
chain 2: not shown

EC50 [1]: 7.7 nM
Emax (%) [relative to FWT 100%] [1]: 147%
B20: long-acting GDF15 fusion protein (dimer) FM5 + Fc_hole (ΔN2, S64K) (Fc fusion)
chain 1: B1 chain 1 with H291Q, S304K
chain 2: not shown

EC50 [2]: 9.7 nM
Emax (%) [2]: 65.6%
B21: long-acting GDF15 fusion protein (dimer) FM11-1 + Fc_hole (ΔN3, G4N, D5S, H6T, S64R; linker GS(G4S)3) (Fc fusion)
chain 1: APEAAGGPSVFLFPPKPKDTLMISRTPEVTCVVVDVSHEDPEVKFNWYVDGVEVHNAKTKPREEQYASTYRVVSVLTVLHQDWLNGKEYKCKVSNKALPAPIEKTISKAKGQPREPQVYTLPPSREEMTKNQVSLWCLVKGFYPSDIAVEWESNGQPENNYKTTPPVLDSDGSFFLYSKLTVDKSRWQQGNVFSCSVMHEALHNHYTQKSLSLSPGKGSGGGGSGGGGSGGGGSNSTCPLGPGRCCRLHTVRASLEDLGWADWVLSPREVQVTMCIGACPSQFRAANMHAQIKTRLHRLKPDTVPAPCCVPASYNPMVLIQKTDTGVSLQTYDDLLAKDCHCI
chain 2: APEAAGGPSVFLFPPKPKDTLMISRTPEVTCVVVDVSHEDPEVKFNWYVDGVEVHNAKTKPREEQYASTYRVVSVLTVLHQDWLNGKEYKCKVSNKALPAPIEKTISKAKGQPREPQVYTLPPSREEMTKNQVSLSCAVKGFYPSDIAVEWESNGQPENNYKTTPPVLDSDGSFFLVSKLTVDKSRWQQGNVFSCSVMHEALHNHYTQKSLSLSPGK

EC50 [2]: 9 nM
Emax (%) [2]: 97.6%
B22: long-acting GDF15 fusion protein (dimer) FM9-1 + Fc_hole (ΔN2, S64R; linker GS(G4S)3) (Fc fusion)
chain 1: APEAAGGPSVFLFPPKPKDTLMISRTPEVTCVVVDVSHEDPEVKFNWYVDGVEVHNAKTKPREEQYASTYRVVSVLTVLHQDWLNGKEYKCKVSNKALPAPIEKTISKAKGQPREPQVYTLPPSREEMTKNQVSLWCLVKGFYPSDIAVEWESNGQPENNYKTTPPVLDSDGSFFLYSKLTVDKSRWQQGNVFSCSVMHEALHNHYTQKSLSLSPGKGSGGGGSGGGGSGGGGSNGDHCPLGPGRCCRLHTVRASLEDLGWADWVLSPREVQVTMCIGACPSQFRAANMHAQIKTRLHRLKPDTVPAPCCVPASYNPMVLIQKTDTGVSLQTYDDLLAKDCHCI
chain 2: B21 chain 2

EC50 [2]: 45.4 nM
Emax (%) [2]: 105%
B23: long-acting GDF15 fusion protein (dimer) FM11-4 + Fc_hole (ΔN3, G4N, D5S, H6T, S64R; linker GS(EEEA)6) (Fc fusion)
chain 1: APEAAGGPSVFLFPPKPKDTLMISRTPEVTCVVVDVSHEDPEVKFNWYVDGVEVHNAKTKPREEQYASTYRVVSVLTVLHQDWLNGKEYKCKVSNKALPAPIEKTISKAKGQPREPQVYTLPPSREEMTKNQVSLWCLVKGFYPSDIAVEWESNGQPENNYKTTPPVLDSDGSFFLYSKLTVDKSRWQQGNVFSCSVMHEALHNHYTQKSLSLSPGKGSEEEAEEEAEEEAEEEAEEEAEEEANSTCPLGPGRCCRLHTVRASLEDLGWADWVLSPREVQVTMCIGACPSQFRAANMHAQIKTRLHRLKPDTVPAPCCVPASYNPMVLIQKTDTGVSLQTYDDLLAKDCHCI
chain 2: B21 chain 2

EC50 [2]: 7.8 nM
Emax (%) [2]: 81%
B24: long-acting GDF15 fusion protein (dimer) FM11-3 + Fc_hole (ΔN3, G4N, D5S, H6T, S64R; linker GS(G4S)7) (Fc fusion)
chain 1: APEAAGGPSVFLFPPKPKDTLMISRTPEVTCVVVDVSHEDPEVKFNWYVDGVEVHNAKTKPREEQYASTYRVVSVLTVLHQDWLNGKEYKCKVSNKALPAPIEKTISKAKGQPREPQVYTLPPSREEMTKNQVSLWCLVKGFYPSDIAVEWESNGQPENNYKTTPPVLDSDGSFFLYSKLTVDKSRWQQGNVFSCSVMHEALHNHYTQKSLSLSPGKGSGGGGSGGGGSGGGGSGGGGSGGGGSGGGGSGGGGSNSTCPLGPGRCCRLHTVRASLEDLGWADWVLSPREVQVTMCIGACPSQFRAANMHAQIKTRLHRLKPDTVPAPCCVPASYNPMVLIQKTDTGVSLQTYDDLLAKDCHCI
chain 2: B21 chain 2

EC50 [2]: 7.7 nM
Emax (%) [2]: 79.4%
B25: long-acting GDF15 fusion protein (dimer) FM11-2 + Fc_hole (ΔN3, G4N, D5S, H6T, S64R; linker GS(G4S)5) (Fc fusion)
chain 1: APEAAGGPSVFLFPPKPKDTLMISRTPEVTCVVVDVSHEDPEVKFNWYVDGVEVHNAKTKPREEQYASTYRVVSVLTVLHQDWLNGKEYKCKVSNKALPAPIEKTISKAKGQPREPQVYTLPPSREEMTKNQVSLWCLVKGFYPSDIAVEWESNGQPENNYKTTPPVLDSDGSFFLYSKLTVDKSRWQQGNVFSCSVMHEALHNHYTQKSLSLSPGKGSGGGGSGGGGSGGGGSGGGGSGGGGSNSTCPLGPGRCCRLHTVRASLEDLGWADWVLSPREVQVTMCIGACPSQFRAANMHAQIKTRLHRLKPDTVPAPCCVPASYNPMVLIQKTDTGVSLQTYDDLLAKDCHCI
chain 2: B21 chain 2

EC50 [2]: 5.1 nM
Emax (%) [2]: 68.2%
B26: long-acting GDF15 fusion protein (dimer) FM11-5 + Fc_hole (ΔN3, G4N, D5S, H6T, S64R; linker GSGGSS(PT)10) (Fc fusion)
chain 1: APEAAGGPSVFLFPPKPKDTLMISRTPEVTCVVVDVSHEDPEVKFNWYVDGVEVHNAKTKPREEQYASTYRVVSVLTVLHQDWLNGKEYKCKVSNKALPAPIEKTISKAKGQPREPQVYTLPPSREEMTKNQVSLWCLVKGFYPSDIAVEWESNGQPENNYKTTPPVLDSDGSFFLYSKLTVDKSRWQQGNVFSCSVMHEALHNHYTQKSLSLSPGKGSGGSSPTPTPTPTPTPTPTPTPTPTNSTCPLGPGRCCRLHTVRASLEDLGWADWVLSPREVQVTMCIGACPSQFRAANMHAQIKTRLHRLKPDTVPAPCCVPASYNPMVLIQKTDTGVSLQTYDDLLAKDCHCI
chain 2: B21 chain 2

EC50 [2]: 6.8 nM
Emax (%) [2]: 80.3%
B27: long-acting GDF15 fusion protein (dimer) FM11-6 + Fc_hole (ΔN3, G4N, D5S, H6T, S64R; linker GS(EAAAK)5) (Fc fusion)
chain 1: APEAAGGPSVFLFPPKPKDTLMISRTPEVTCVVVDVSHEDPEVKFNWYVDGVEVHNAKTKPREEQYASTYRVVSVLTVLHQDWLNGKEYKCKVSNKALPAPIEKTISKAKGQPREPQVYTLPPSREEMTKNQVSLWCLVKGFYPSDIAVEWESNGQPENNYKTTPPVLDSDGSFFLYSKLTVDKSRWQQGNVFSCSVMHEALHNHYTQKSLSLSPGKGSEAAAKEAAAKEAAAKEAAAKEAAAKNSTCPLGPGRCCRLHTVRASLEDLGWADWVLSPREVQVTMCIGACPSQFRAANMHAQIKTRLHRLKPDTVPAPCCVPASYNPMVLIQKTDTGVSLQTYDDLLAKDCHCI
chain 2: B21 chain 2
